Patent US20140348834A1 (published 2014)

Tests used:
human IL-17A [1] = target: T1, human IL-17A (human, UniProt Q16552 24-155); test: ELISA, captured antibody, serially diluted biotin-IL-17 (Example 1.5.1)
T1 construct: Biotinylated in the ELISA; also called hIL-17; Hu IL-17A
T1 sequence (Q16552 24-155 limits assumed): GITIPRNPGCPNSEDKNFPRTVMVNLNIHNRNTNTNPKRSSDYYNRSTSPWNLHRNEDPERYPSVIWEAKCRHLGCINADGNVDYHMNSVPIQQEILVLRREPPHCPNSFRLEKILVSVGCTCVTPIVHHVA
Procedure: The following protocol is used to characterize the binding of IL-17 antibodies to human IL-17 by enzyme-linked immunosorbent assay (ELISA). […] 1. Coat ELISA plate with 50 μl per well of Goat anti Mouse IgG-Fc at 2 ug/ml, overnight at 4° C. […] 2. Wash plate 3×PBS/Tween. […] 3. Add 50 μl Mab diluted to 1 μg/ml in PBS/0.1% BSA to appropriate wells. Incubate 1 hr at room temperature (RT). […] 4. Wash plate 3× with PBS/Tween. […] 5. Add 50 μl of serial diluted biotin-IL17 (human IL-17, IL-17A/F, cyno IL-17) to appropriate wells. Incubate 1 hr at room temperature (RT). […] 6. Wash plate 3× with PBS/Tween. […] 7. […] Incubate 1 hr at RT. […] 8. Wash plate 3× with PBS/Tween. […] 9. […] 10. Stop reaction with 50 μl 2N H₂SO₄. […] Read absorbance at 450 nm.

human IL-17A [2] = target: T1, human IL-17A; test: cell-based or functional assay
cyno IL-17A = cyno IL-17A (cynomolgus monkey, UniProt A0A2K5TTB0 24-155); test: SPR Biacore, captured binder
Procedure: (§1) The binding of antibodies to purified recombinant human, cyno, rat, mouse, rabbit IL-17 and human IL-17A/F were determined by surface plasmon resonance-based measurements with a Biacore® 3000 instrument (Biacore® AB, Uppsala, Sweden) using running HBS-EP (10 mM HEPES [pH 7.4], 150 mM NaCl, 3 mM EDTA, and 0.005% surfactant P20) at 25° C. […] Approximately 5000 RU of goat anti-mouse or anti-human IgG (Fcγ) fragment specific polyclonal antibody (Pierce Biotechnology Inc, Rockford, Ill.) diluted in 10 mM sodium acetate (pH 4.5) was directly immobilized across a CM5 research grade biosensor chip using a standard amine coupling kit according to manufacturer's instructions and procedures at 25 μg/ml. Unreacted moieties on the biosensor surface were blocked with ethanolamine. Modified carboxymethyl dextran surface in flowcell 2 and 4 was used as a reaction surface. Unmodified carboxymethyl dextran without goat anti-mouse or anti-human IgG in flow cell 1 and 3 was used as the reference surface. For kinetic analysis, rate equations derived from the 1:1 Langmuir binding model were fitted simultaneously to association and dissociation phases of all eight injections (using global fit analysis) with the use of Biaevaluation 4.0.1 software. Purified antibodies were diluted in HEPES-buffered saline for capture across goat anti-mouse or anti-human IgG specific reaction surfaces. Antibodies to be captured as a ligand (25 μg/ml) were injected over reaction matrices at a flow rate of 5 μl/min. The association and dissociation rate constants, kon (unit M-1s-1) and koff (unit s-1) were determined under a continuous flow rate of 25 μl/min. Rate constants were derived by making kinetic binding measurements at ten different antigen concentrations ranging from 10 nM to 200 nM. The equilibrium dissociation constant (unit M) of the reaction between antibodies and recombinant purified IL-17 antigens was then calculated from the kinetic rate constants by the following formula: KD=koff/kon. Binding was recorded as a function of time and kinetic rate constants are calculated. In this assay, on-rates as fast as 10⁶ M⁻¹ s⁻¹ and off-rates as slow as 10⁻⁶ s⁻¹ can be measured.

human IL-17A [3] = target: T2, human IL-17A (human, UniProt Q16552 24-155); test: SPR Biacore, captured binder
T2 construct: Purified recombinant; biotinylated in the ELISA; also called HuIL-17A; Hu IL-17A
T2 sequence (Q16552 24-155 limits assumed): as above
Procedure: as §1

human IL-17A/F [4] = target: T3, human IL-17A/F (human, UniProt Q16552 24-155; Q96PD4 31-163); test: SPR Biacore, captured binder
T3 construct: Heterodimer of IL-17A and IL-17F, purified recombinant; also called HuIL-17A/F; Hu IL-17A/F
T3 sequence (Q16552 24-155 limits assumed, chain 1 of 2): as the sequence (Q16552 24-155 limits assumed) above
T3 sequence (Q96PD4 31-163 limits assumed, chain 2 of 2): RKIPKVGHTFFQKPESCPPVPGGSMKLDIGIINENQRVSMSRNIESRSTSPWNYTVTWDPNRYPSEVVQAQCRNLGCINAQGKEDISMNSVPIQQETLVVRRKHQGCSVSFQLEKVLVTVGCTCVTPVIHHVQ
Procedure: as §1

human IL-17A [5] = target: T4, human IL-17A (human, UniProt Q16552 24-155); test: hIL17A ELISA
T4 construct: Recombinant; biotinylated in the ELISA; also called hIL-17; hIL17A
T4 sequence (Q16552 24-155): as the sequence (Q16552 24-155 limits assumed) above
Procedure: The following protocol is used to characterize the binding of IL-17 antibodies to human IL-17 by enzyme-linked immunosorbent assay (ELISA). […] Coat ELISA plate with 50 μl per well of Goat anti Mouse IgG-Fc at 2 ug/ml, overnight at 4° C. […] Wash plate 3×PBS/Tween. […] Add 50 μl Mab diluted to 1 μg/ml in PBS/0.1% BSA to appropriate wells. Incubate 1 hr at room temperature (RT). […] Wash plate 3× with PBS/Tween. […] Add 50 μl of serial diluted biotin-IL17 (human IL-17, IL-17A/F, cyno IL-17) to appropriate wells. Incubate 1 hr at room temperature (RT). […] Wash plate 3× with PBS/Tween. […] Incubate 1 hr at RT. […] Wash plate 3× with PBS/Tween. […] Stop reaction with 50 μl 2N H₂SO₄. […] Read absorbance at 450 nm.

human IL-17A [6] = target: T4, human IL-17A; test: SPR (Biacore 3000), antibody captured by anti-Fc, antigen in solution;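 also: purified recombinant IL-17 antigens flowed over captured antibodies in HBS-EP buffer, global Langmuir one-to-one fit of association and dissociation phases, KD derived from koff over kon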
Procedure: as §1

mouse IL-17A = target: T5, mouse IL-17A (mouse, UniProt Q62386 26-158, limits assumed); test: as above
T5 construct: Purified recombinant protein in SPR; also called MuIL-17A; murine IL-17A
T5 sequence (looked up): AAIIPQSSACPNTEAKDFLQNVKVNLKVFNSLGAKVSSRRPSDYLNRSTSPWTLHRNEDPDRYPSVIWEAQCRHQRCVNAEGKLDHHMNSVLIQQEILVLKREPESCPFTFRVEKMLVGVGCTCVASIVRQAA
Procedure: as §1

human IL-17A/F [7] = target: T6, human IL-17A/F (human, UniProt Q16552 24-155; Q96PD4 31-163); test: as above
T6 construct: Recombinant; biotinylated in the ELISA; also called hIL-17A/F; HuIL-17A/F
T6 sequence (Q16552 24-155, chain 1 of 2): as the sequence (Q16552 24-155 limits assumed) above
T6 sequence (Q96PD4 31-163, chain 2 of 2): as the sequence (Q96PD4 31-163 limits assumed, chain 2 of 2) above
Procedure: as §1

cynomolgus monkey IL-17A = target: T7, cynomolgus monkey IL-17A (cynomolgus monkey, UniProt A0A2K5TTB0 24-155); test: as above
T7 construct: biotinylated in the ELISA; also called cyno IL-17; Cyno IL-17A
T7 sequence (A0A2K5TTB0 entry or part of it): as the sequence (Q16552 24-155 limits assumed) above, with T3A, P8S, N34S, I77V, N78K, P104R counted along it
Procedure: as §1

rat IL-17A = target: T8, rat IL-17A (rat, UniProt Q61453 18-150, limits assumed); test: as above
T8 construct: Purified recombinant protein in SPR
T8 sequence (looked up): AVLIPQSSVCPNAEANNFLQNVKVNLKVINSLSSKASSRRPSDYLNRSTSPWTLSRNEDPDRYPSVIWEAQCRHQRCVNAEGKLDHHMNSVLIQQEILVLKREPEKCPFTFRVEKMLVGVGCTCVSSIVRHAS
Procedure: as §1

Sequence of cyno IL-17A (A0A2K5TTB0 entry or part of it): as the sequence (Q16552 24-155 limits assumed) above, with T3A, P8S, N34S, I77V, N78K, P104R counted along it

B1: IL17-LN-K9-F5 (antibody, V domains shown)
VH: EVQLVQSGAEVKNPGASVKVSCKVSGSRLSDLAMHWVRQAPGKGPEWMGGFDPDEGETVYAQNFQGRVSMTEDTSSDTAYMELNSLRSEDTAVYYCATIRPWLGGAYYFDNWGQGTLVTVSS
VL: ETTLTQSPAFMSATPGDKVNISCKASQDIDDDMNWYQQKPGEAALFIIQEATTLVPGIPPRFSGSGYGTDFTLTVNNIQSEDAAYYFCLQHDSFPYTFGQGTKLEIKR
notes: Fully human monoclonal antibody from mRNA display
EC50 (human IL-17A [1]): 7.45 nM

B2: IL17-G9-3 (antibody, V domains shown)
VH: EVQLLESGGGVVQPGRSLRLSCAASGFIFSNYGMHWVRQAPGKGLEWVAVISYDGSNKYYADSVKGRFTISRDNSKNTLYLEMNSLRPEDTAVYYCAKVGASGDYYYSYGLDVWGQGTTVTVSS
VL: QSVLTQPPSASGTPGQTVSISCSGRNSNIGSHYVHWYQQVPGAAPKLLMYDFGLRPSGVPDRFSVSQSGTSASLAISGLQSEDEADYYCATWDDMLGGYVFGTGTKVTVLG
Potency (pM), IL-17-driven IL-6 production in HS27 cells (human IL-17A [2]): 334 pM
EC50 (human IL-17A [1]): 0.05 nM

B3: IL17-G9-5 (antibody, V domains shown)
VH: EVQLLESGGGVVQPGRSLRLSCAASGFIFRNYGMHWVRQAPGKGLEWVAVIAYDGSRQYYSDSVKGRFTISRDNSKNTLYLEMNSLRPEDTAVYYCAKVGASGDYYYSYGLDLWGQGTTVTVSS
VL: QSVLTQPPSASGTPGQTVSISCSGRQSNIGRHYVDWYQQVPGAAPKLLMYYDSIRPSGVPDRFSGSQSGTSASLAISGLQSEDEADYYCGMWDDSLAGYVFGSGTKVTVLG
Potency (pM), IL-17-driven IL-6 production in HS27 cells (human IL-17A [2]): 310 pM
EC50 (human IL-17A [1]): 0.12 nM

B4: IL17-B6-46 (antibody, V domains shown)
VH: EVQLVQSGAEVKKPGESLKISCKASGGSFISYGISWVRQAPGQGLEWMGGITHFFGSTDYAQKFQGRVTITADESTTTAYMELSGLTSDDTAVYYCAREPNEFWNGYYTTHDFDSWGQGTTVTVSS
VL: EIVLTQSPDFQSVTPKEKVTITCRASQAIGSELHWYQQKPDQSPKLLIKYASYSVSGVPSRFSGSGSGTDFTLTINGLEAEDAGTYYCHQSASLPYTFGQGTKVDIK
notes: also called pJP253 B6.1 #46VH / pJP254 B6.1 #46Vk
Potency (pM), IL-17-driven IL-6 production in HS27 cells (human IL-17A [2]): 59 pM
EC50 (human IL-17A [1]): 0.14 nM

B5: IL17-B6-18 (antibody, V domains shown)
VH: EVQLVQSGAEVKKPGESLKVSCKASGGRFRTYGISWVRQAPGQGLEWMGGITNFFGWTDYAQKFQGRVTITADESTTTAYMELSGLTSDDTAVYYCARVPNEFWNGYYATDYFDNWGQGTTVTVSS
VL: EIVLTQSPDFQSVTPKEKVTITCRASQEIGASLHWYQQKPDQSPKLLIKYASHSASGVPSRFSGSGSGTDFTLTINSLEAEDAATYYCHQSDGLPYTFGQGTKVDIK
notes: also called pJP251 B6.1 #18VH / pJP250 B6.1 #18Vk
EC50 (human IL-17A [1]): 0.16 nM

B6: IL17-B6-16 (antibody, V domains shown)
VH: EVQLVQSGAEVKMPGSSLKISCKASGGSFRGYGISWVRQAPGQGLEWMGGITPFFGWADYAQKFQGRVTITADESTTTAYMELSGLTSDDTAVYYCARDPNEFWNGYYDTHHFDYWGQGTTVTVSS
VL: EIVLTQSPDFQSVTPKEKVTITCRASQDIGSALHWYQQKPDQSPKLLIKYASHSVSGVPSRFSGSGSGTDFTLTINGLEAEDAGTYYCHQSDILPHTFGPGTKVDIK
Kd (cyno IL-17A): 0.00483 nM
koff (cyno IL-17A): 4.48e-05 s⁻¹
kon (cyno IL-17A): 9.27e+06 M⁻¹ s⁻¹
Kd (human IL-17A [3]): 0.00794 nM
koff (human IL-17A [3]): 3e-05 s⁻¹
kon (human IL-17A [3]): 3.78e+06 M⁻¹ s⁻¹
Kd (human IL-17A/F [4]): 0.0164 nM
koff (human IL-17A/F [4]): 6.57e-05 s⁻¹
kon (human IL-17A/F [4]): 4e+06 M⁻¹ s⁻¹

B7: IL17-h5C5.18 (antibody, V domains shown)
VH: EVQLVQSGAEVKKPGASVKVSCKASGYTFTDYEFHWVRQAPGQGLEWIGVIHPGNGGTAYNQNFRDRATLTADKSTSTAYMELSSLRSEDTAVYYCTRFLTYEGYFDYWGQGTLVTVSS
VL: NIVMTQSPSSLSASVGDRVTITCKASQSVSIDVGWFQQKPGKSPKLLIYHASNRYTGVPSRFSGSGSGTDFTFTISSLQPEDFATYFCQQDYSSPYTFGQGTKLEIKR
notes: IgG; constant regions not specified; also called h5C5.18 (VH.1b-Vk.1c)
EC50 (human IL-17A [5]): 0.03 nM
Kd (human IL-17A [6]): 0.521 nM
koff (human IL-17A [6]): 0.000493 s⁻¹
kon (human IL-17A [6]): 947000 M⁻¹ s⁻¹
Kd (mouse IL-17A): 2.91 nM
koff (mouse IL-17A): 0.0005 s⁻¹
kon (mouse IL-17A): 172000 M⁻¹ s⁻¹
Kd (human IL-17A/F [7]): 1.31 nM
koff (human IL-17A/F [7]): 0.00101 s⁻¹
kon (human IL-17A/F [7]): 772000 M⁻¹ s⁻¹
Kd (cynomolgus monkey IL-17A): 0.437 nM
koff (cynomolgus monkey IL-17A): 0.000254 s⁻¹
kon (cynomolgus monkey IL-17A): 581000 M⁻¹ s⁻¹
Kd (rat IL-17A): 9.15 nM
koff (rat IL-17A): 0.00421 s⁻¹
kon (rat IL-17A): 460000 M⁻¹ s⁻¹
